Results on one molecule are retold here after patent publication US20030170222A1.

The test deals with Melanocortin MC5 (human recombinant, HEK-293 cells) (human), P33032.

By IC50 is commonly meant the concentration at which inhibition is half-maximal. The Ki is a dissociation constant, usually derived from enzyme kinetics or from competition with a known ligand.

Melanocortin MC5 (human recombinant, HEK-293 cells) (human), P33032, sequence (P33032 whole entry): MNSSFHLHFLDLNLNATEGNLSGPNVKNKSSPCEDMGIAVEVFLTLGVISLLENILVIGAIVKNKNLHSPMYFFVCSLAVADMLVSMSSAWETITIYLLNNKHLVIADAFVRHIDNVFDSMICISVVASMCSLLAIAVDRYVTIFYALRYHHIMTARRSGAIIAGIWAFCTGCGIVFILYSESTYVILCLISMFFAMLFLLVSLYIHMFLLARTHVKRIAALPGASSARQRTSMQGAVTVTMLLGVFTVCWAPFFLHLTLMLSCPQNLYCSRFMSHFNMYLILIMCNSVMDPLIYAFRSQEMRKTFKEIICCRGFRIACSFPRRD

B1: β-Ge14.1-D1 (peptide)
peptide: SLWCVCPFRVCPPCH
modifications: not checked
Take B1: the % Inh. is 71%, the IC50 came out at 294 nM and the Ki turned out to be 276 nM.
